Measured values from patent US8765908B2, “Compositions for improving bone mass” (The UAB Research Foundation, priority 2010, dated 2014).
Residue numbers refer to the chain shown, from its start. “Also recorded” adds a separate entry of the source.

Key:
[1] = target: T1, RANK fragment 498-556 (Myc-RANK) (Mus musculus, UniProt O35305); assay: Co-immunoprecipitation with Myc-RANK in 293T cells; format: binding; conditions: cotransfection with Myc-RANK in 293T cells; IP then Western blot
T1 construct: expressed in transfected cells; host or cells: 293T cells
T1 sequence (O35305 498-556): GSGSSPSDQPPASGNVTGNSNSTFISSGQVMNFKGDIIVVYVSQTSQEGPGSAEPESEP
Protocol: (§1) 293T cells were cultured in DMEM containing 10% heat-inactivated fetal bovine serum (HI-FBS) and penicillin/streptomycin (culturing medium). Cells grown near confluence were lifted and replated at density of 5×10^6 cells/dish in 100-mm tissue culture dishes the day before transfection. Total 8 μg plasmid was transfected into 293T cells using Lipofectamine™ in combination of Plus® Reagent (Invitrogen). Briefly, 8 μg plasmid was mixed with 20 μl Plus®Reagent before addition of 350 μl DMEM. The mixture was incubated at RT for 15 min and then added with 380 μl freshly prepared Lipofectamine™ Reagent (Lipofectamine™ Reagent+350 μl DMEM). The complete transfection solution was further incubated at RT for 15 min before being added to one dish of 293T cells which was washed with DMEM twice immediately before the addition of the solution. The cells were incubated at 37° C. for 3 hrs before addition of 6.5 ml culturing medium and the incubation continued overnight. […]
As such, the potential of RYBP as a signaling molecule interacting with the IVVY (SEQ ID NO:4) motif was examined to regulate osteoclastogenesis. […] It was then determined whether the interaction between the RANK fragment and RYBP seen in yeast also occurs in mammalian cells. the cDNA region encoding the bait was cloned into pCMV-Myc vector (BD Biosciences Clontech) to generate Myc-RANK (FIG. 1C). […]

[2] = target: T2, Myc-mRANK (RANK fragment with IVVY to IVAF inactivating mutation) (Mus musculus, UniProt O35305, V537A/Y538F); assay: Co-immunoprecipitation with Myc-mRANK in 293T cells; format: binding; conditions: cotransfection with Myc-mRANK; IP anti-Myc, WB anti-HA
T2 construct: expressed in transfected cells; host or cells: 293T cells
T2 sequence (O35305 498-556 V537A/Y538F): T1 sequence (O35305 498-556) with V40A, Y41F
Protocol: as §1, with “overnight. Next day, the medium containing the DNA/transfection reagents was replaced with fresh culturing medium.” for “overnight.”
Next, it was determined whether the IVVY (SEQ ID NO:4) motif in the RANK region is specifically responsible for interaction with RYBP. […] Cell lysates were coimmunoprecipitated with anti-Myc antibody and then the precipitates were analyzed by Western analysis with anti-HA antibody.

interaction with IVVY-mutated RANK (co-IP band) [2]: failed to do so
Substance: HA-RYBP: full-length RYBP cDNA subcloned into pCMV-HA vector
interaction with RANK (co-IP band) [1]: gave rise to a positive band; also recorded: yielded a positive band
